Columns and labels:
RPL35A = RPL35A (UniProt P18077); test: co-IP with anti-FLAG, mass spectrometry; C-FLAG B3GNT2
RPL10A = RPL10A (UniProt P62906); test: as above
RPLP2 = RPLP2 (UniProt P05387); test: as above
LTF = LTF (UniProt P02788); test: as above
SERPINB12 = SERPINB12 (UniProt Q96P63); test: as above
EEF1A1 = EEF1A1 (UniProt P68104); test: as above
HNRNPF = HNRNPF (UniProt P52597); test: as above
ACTR3 = ACTR3 (UniProt P61158); test: as above
RPL11 = RPL11 (UniProt P62913); test: as above
LYZ = LYZ (UniProt P61626); test: as above
ATXN2L = ATXN2L (UniProt Q8WWM7); test: as above
YWHAZ = YWHAZ (UniProt P63104); test: as above
RPS15A = RPS15A (UniProt P62244); test: as above
ATP5F1B = ATP5F1B (UniProt P06576); test: as above
SLIRP = SLIRP (UniProt Q9GZT3); test: as above
HNRNPA1 = HNRNPA1 (UniProt P09651); test: as above
CTSD = CTSD (UniProt P07339); test: as above
UBA52 = UBA52 (UniProt P62987); test: as above
RPL21 = RPL21 (UniProt P46778); test: as above
DNAJA1 (human) = DNAJA1 (human) (UniProt P31689); test: co-IP/MS, IgG control IP of C-FLAG B3GNT2 cell lysate
RPS5 (human) = RPS5 (human) (UniProt P46782); test: as above
CAPZB (human) = CAPZB (human) (UniProt P47756); test: as above
ERLIN1 (human) = ERLIN1 (human) (UniProt O75477); test: as above
RPS9 (human) = RPS9 (human) (UniProt P46781); test: as above
GCN1 (human) = GCN1 (human) (UniProt Q92616); test: as above
HSD17B12 (human) = HSD17B12 (human) (UniProt Q53GQ0); test: as above
RPS3A (human) = RPS3A (human) (UniProt P61247); test: as above
IPO4 (human) = IPO4 (human) (UniProt Q8TEX9); test: as above
FKBP10 (human) = FKBP10 (human) (UniProt Q96AY3); test: as above
FAM3C (human) = FAM3C (human) (UniProt Q92520); test: as above
CASP14 (human) = CASP14 (human) (UniProt P31944); test: as above
RPL12 (human) = RPL12 (human) (UniProt P30050); test: as above
TUBB (human) = TUBB (human) (UniProt P07437); test: as above
PRDX1 (human) = PRDX1 (human) (UniProt Q06830); test: as above
SQSTM1 (human) = SQSTM1 (human) (UniProt Q13501); test: as above
CKAP4 (human) = CKAP4 (human) (UniProt Q07065); test: as above
PDIA6 (human) = PDIA6 (human) (UniProt Q15084); test: as above
RPL13A (human) = RPL13A (human) (UniProt P40429); test: as above
RPS15 (human) = RPS15 (human) (UniProt P62841); test: as above
PIP (human) = PIP (human) (UniProt P12273); test: as above
Chain of PIP (human) (P12273 29-146 limits assumed): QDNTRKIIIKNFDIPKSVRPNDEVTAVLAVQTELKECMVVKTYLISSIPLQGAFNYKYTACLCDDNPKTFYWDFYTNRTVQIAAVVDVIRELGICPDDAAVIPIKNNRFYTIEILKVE

Chain of LTF (P02788 20-710 limits assumed): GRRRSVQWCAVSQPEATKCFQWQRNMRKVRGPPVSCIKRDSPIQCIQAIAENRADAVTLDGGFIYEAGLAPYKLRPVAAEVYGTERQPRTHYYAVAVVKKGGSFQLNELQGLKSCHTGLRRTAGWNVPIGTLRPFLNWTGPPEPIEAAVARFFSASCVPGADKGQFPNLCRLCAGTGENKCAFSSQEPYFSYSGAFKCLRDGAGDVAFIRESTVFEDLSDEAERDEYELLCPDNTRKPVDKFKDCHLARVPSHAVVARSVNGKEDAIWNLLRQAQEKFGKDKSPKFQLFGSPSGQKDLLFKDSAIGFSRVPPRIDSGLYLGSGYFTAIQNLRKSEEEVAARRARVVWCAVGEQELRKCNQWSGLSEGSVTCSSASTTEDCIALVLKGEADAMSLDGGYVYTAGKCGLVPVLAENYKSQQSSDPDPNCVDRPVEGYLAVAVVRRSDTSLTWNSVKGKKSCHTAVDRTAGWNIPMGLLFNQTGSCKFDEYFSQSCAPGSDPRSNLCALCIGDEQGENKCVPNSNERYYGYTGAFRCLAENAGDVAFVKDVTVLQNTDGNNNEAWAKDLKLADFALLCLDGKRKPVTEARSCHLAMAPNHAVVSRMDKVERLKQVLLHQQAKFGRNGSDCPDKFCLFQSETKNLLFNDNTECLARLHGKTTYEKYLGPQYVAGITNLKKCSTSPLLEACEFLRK
Chain of FKBP10 (human) (Q96AY3 27-582 limits assumed): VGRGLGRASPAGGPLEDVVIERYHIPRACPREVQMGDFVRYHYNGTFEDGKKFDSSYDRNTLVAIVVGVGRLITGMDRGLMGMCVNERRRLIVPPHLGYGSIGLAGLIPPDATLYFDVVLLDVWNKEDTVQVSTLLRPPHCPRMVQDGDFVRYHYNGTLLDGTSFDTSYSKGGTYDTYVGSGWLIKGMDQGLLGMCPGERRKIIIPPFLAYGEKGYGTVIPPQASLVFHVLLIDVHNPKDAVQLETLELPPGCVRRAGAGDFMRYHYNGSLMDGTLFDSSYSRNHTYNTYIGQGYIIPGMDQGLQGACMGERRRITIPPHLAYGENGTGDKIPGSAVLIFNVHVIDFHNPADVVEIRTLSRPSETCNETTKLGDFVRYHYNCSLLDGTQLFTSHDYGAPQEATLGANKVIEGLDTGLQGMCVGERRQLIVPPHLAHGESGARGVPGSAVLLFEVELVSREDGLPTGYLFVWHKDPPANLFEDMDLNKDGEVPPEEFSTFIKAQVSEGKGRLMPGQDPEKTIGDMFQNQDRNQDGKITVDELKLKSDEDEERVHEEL
Chain of HNRNPA1 (P09651 2-372 limits assumed): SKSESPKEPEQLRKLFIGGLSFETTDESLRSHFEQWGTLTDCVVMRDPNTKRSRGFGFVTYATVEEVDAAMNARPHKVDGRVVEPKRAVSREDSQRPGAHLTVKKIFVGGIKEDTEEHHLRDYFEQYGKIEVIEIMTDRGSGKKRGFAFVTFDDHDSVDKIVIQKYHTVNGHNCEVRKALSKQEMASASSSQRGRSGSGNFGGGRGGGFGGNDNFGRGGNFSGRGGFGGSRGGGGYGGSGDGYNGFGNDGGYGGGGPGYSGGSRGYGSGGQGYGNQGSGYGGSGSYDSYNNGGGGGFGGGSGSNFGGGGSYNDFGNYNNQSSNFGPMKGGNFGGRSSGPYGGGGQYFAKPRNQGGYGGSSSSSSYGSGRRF
Chain of YWHAZ (P63104 whole entry): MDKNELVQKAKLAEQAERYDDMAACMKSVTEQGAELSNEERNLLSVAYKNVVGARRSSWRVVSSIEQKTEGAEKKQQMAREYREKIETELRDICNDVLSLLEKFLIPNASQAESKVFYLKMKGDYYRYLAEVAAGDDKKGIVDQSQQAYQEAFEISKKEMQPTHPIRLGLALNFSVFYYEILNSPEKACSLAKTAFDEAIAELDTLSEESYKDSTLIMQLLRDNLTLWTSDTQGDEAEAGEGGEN
Chain of IPO4 (human) (Q8TEX9 whole entry): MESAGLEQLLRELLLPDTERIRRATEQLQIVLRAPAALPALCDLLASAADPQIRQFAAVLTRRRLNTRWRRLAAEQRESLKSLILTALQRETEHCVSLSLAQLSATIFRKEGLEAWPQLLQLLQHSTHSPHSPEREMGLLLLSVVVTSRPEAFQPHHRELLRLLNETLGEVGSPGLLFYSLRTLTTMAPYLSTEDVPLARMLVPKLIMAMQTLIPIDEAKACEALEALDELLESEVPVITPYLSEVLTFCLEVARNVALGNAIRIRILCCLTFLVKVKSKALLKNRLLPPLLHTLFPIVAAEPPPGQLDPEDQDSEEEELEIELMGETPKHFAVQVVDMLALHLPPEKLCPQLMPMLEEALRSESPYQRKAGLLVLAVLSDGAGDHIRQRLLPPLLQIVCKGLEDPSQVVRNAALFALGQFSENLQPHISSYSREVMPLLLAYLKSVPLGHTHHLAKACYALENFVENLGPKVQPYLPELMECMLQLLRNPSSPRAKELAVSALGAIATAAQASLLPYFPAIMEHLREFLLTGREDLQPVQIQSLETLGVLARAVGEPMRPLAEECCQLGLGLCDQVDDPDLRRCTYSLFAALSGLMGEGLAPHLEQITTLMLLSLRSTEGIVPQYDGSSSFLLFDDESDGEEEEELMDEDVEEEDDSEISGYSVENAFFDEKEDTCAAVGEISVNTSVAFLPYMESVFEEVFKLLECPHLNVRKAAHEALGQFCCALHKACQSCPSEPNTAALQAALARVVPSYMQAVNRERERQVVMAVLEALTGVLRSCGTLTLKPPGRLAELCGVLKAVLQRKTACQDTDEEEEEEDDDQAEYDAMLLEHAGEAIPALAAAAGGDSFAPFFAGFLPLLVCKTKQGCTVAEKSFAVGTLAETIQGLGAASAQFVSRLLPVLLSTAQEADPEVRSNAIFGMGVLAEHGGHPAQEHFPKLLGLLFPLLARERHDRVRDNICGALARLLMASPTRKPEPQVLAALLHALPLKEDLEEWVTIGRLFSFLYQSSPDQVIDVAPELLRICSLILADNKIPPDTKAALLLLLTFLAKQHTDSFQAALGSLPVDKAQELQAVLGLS
Chain of ATXN2L (Q8WWM7 whole entry): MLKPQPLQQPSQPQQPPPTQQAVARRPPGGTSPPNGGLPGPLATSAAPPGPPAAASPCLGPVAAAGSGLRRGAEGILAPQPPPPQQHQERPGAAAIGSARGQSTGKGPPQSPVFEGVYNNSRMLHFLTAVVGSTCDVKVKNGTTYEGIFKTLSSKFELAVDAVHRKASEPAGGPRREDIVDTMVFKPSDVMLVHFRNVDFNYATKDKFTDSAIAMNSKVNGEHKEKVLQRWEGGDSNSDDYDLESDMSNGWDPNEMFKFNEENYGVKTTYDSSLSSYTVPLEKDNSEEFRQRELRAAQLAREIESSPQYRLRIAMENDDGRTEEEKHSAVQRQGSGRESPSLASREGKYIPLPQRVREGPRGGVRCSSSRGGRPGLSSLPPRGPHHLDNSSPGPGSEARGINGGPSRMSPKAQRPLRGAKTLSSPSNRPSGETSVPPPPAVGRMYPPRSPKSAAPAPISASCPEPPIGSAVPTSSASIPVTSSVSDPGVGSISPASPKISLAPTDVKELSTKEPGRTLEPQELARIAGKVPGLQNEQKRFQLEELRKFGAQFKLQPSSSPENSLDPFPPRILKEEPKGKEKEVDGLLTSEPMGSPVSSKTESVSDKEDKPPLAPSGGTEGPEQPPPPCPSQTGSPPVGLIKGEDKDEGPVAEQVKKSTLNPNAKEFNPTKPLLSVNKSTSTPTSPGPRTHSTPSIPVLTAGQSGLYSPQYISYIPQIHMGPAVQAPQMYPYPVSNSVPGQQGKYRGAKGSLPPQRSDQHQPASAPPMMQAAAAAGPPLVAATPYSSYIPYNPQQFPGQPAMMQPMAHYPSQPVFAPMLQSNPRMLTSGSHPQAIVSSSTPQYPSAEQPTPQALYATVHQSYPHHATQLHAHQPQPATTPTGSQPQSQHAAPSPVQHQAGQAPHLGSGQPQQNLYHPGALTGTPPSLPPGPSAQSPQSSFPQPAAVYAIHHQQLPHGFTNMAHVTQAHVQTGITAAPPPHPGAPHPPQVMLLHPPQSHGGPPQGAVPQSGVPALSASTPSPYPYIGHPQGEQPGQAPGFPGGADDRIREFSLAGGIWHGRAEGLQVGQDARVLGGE
Chain of CASP14 (human) (P31944 whole entry): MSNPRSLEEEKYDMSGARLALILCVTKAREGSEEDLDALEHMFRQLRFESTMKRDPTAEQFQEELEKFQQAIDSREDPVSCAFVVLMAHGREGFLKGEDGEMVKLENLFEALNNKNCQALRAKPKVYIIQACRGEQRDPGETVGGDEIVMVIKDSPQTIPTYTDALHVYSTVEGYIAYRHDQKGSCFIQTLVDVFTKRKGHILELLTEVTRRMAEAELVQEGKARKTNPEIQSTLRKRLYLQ
Chain of HNRNPF (P52597 2-415 limits assumed): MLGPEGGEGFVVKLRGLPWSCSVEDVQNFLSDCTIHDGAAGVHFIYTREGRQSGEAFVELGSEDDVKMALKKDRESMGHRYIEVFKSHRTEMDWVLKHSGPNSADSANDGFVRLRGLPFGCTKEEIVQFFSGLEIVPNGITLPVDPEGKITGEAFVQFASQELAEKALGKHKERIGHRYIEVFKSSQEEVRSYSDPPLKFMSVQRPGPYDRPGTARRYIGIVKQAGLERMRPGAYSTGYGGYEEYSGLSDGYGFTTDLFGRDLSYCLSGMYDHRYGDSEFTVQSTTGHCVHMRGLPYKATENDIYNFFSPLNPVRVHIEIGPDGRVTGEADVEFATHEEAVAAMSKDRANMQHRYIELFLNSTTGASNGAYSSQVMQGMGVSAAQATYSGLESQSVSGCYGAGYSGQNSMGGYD
Chain of FAM3C (human) (Q92520 25-227 limits assumed): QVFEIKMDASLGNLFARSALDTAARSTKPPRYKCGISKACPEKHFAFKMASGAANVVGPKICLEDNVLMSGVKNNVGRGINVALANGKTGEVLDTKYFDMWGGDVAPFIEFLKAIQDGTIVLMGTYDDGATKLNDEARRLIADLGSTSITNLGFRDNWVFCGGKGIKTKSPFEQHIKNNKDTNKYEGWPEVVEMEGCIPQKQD

## C-terminal FLAG tagged B3GNT2 (from UniProt Q9NY97 1-397) (enzyme)
RPL35A
  co-IP mass spectrometry count: 6
RPL10A
  co-IP mass spectrometry count: 16
RPLP2
  co-IP mass spectrometry count: 13
LTF
  co-IP mass spectrometry count: 7
SERPINB12
  co-IP mass spectrometry count: 2
EEF1A1
  co-IP mass spectrometry count: 11
HNRNPF
  co-IP mass spectrometry count: 7
ACTR3
  co-IP mass spectrometry count: 7
RPL11
  co-IP mass spectrometry count: 7
LYZ
  co-IP mass spectrometry count: 6
ATXN2L
  co-IP mass spectrometry count: 5
YWHAZ
  co-IP mass spectrometry count: 4
RPS15A
  co-IP mass spectrometry count: 6
ATP5F1B
  co-IP mass spectrometry count: 4
SLIRP
  co-IP mass spectrometry count: 6
HNRNPA1
  co-IP mass spectrometry count: 9
CTSD
  co-IP mass spectrometry count: 4
UBA52
  co-IP mass spectrometry count: 20
RPL21
  co-IP mass spectrometry count: 11

## IgG control (Millipore Sigma 12-371) (antibody)
DNAJA1 (human)
  co-IP mass spectrometry count: 0
RPS5 (human)
  co-IP mass spectrometry count: 0
CAPZB (human)
  co-IP mass spectrometry count: 0
ERLIN1 (human)
  co-IP mass spectrometry count: 0
RPS9 (human)
  co-IP mass spectrometry count: 0
GCN1 (human)
  co-IP mass spectrometry count: 0
HSD17B12 (human)
  co-IP mass spectrometry count: 0
RPS3A (human)
  co-IP mass spectrometry count: 10
IPO4 (human)
  co-IP mass spectrometry count: 0
FKBP10 (human)
  co-IP mass spectrometry count: 0
FAM3C (human)
  co-IP mass spectrometry count: 0
CASP14 (human)
  co-IP mass spectrometry count: 4
RPL12 (human)
  co-IP mass spectrometry count: 5
TUBB (human)
  co-IP mass spectrometry count: 10
PRDX1 (human)
  co-IP mass spectrometry count: 0
SQSTM1 (human)
  co-IP mass spectrometry count: 3
CKAP4 (human)
  co-IP mass spectrometry count: 0
PDIA6 (human)
  co-IP mass spectrometry count: 0
RPL13A (human)
  co-IP mass spectrometry count: 0
RPS15 (human)
  co-IP mass spectrometry count: 2
PIP (human)
  co-IP mass spectrometry count: 2
